The source of these data is patent US20230212554A1 (published 2023).

Test in all cases: ELISA on recombinant NP
For orientation: An ELISA detects its analyte on a solid surface through an enzyme-linked reagent.

Assay [1] concerns the target T1, NPA4 (influenza A virus …, UniProt A8C8J8 1-489).
A further assay concerns the target NPA5 (influenza A virus A/Anhui/1/2005 …, UniProt Q6DPE5 1-489).
The next assay concerns the target T2, NPA1 (influenza A virus A/Taiwan/1/72 (H3N2), UniProt P16982 1-489).
T2 chain: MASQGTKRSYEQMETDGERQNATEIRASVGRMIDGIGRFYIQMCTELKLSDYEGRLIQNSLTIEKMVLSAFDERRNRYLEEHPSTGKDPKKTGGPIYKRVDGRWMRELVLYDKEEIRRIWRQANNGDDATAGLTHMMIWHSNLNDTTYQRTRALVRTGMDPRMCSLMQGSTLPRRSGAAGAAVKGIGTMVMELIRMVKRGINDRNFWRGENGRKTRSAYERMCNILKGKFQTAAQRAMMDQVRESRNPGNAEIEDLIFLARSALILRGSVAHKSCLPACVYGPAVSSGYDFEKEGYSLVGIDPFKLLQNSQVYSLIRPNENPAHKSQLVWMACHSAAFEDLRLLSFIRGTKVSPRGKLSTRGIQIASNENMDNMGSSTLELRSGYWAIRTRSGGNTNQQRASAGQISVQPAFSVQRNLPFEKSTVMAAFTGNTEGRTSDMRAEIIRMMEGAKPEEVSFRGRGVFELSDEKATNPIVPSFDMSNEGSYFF

Assay [2] addresses T1, NPA4. The source holds these as a separate data set.

Changes are numbered by the printed parent chain.

B1: NP13 (antibody, V domains shown)
VH: EVQLVESGGGLVQPGGSLRLSCAASGFTINNYGIHWVRQAPGKGLEWVASIGPYGGSTYYADSVKGRFTISADTSKNTAYLQMNSLRAEDTAVYYCARFGYFNWLDMDYWGQGTLVTVSS
VL: DIQMTQSPSSLSASVGDRVTITCRASQDVGYWVAWYQQKPGKAPKLLISSASGLYSGVPSRFSGSGSGTDFTLTISSLQPEDFATYYCQQGWDWPITFGQGTKVEIKR
Consider B1, for which the EC50 with NPA4 [1] was determined as 0.07 nM; with NPA5, 0.09 nM.

B2: NP10 (antibody, V domains shown)
VH: EVQLVESGGGLVQPGGSLRLSCAASGFTIDNGSIHWVRQAPGKGLEWVAWIWPFGGSTSYADSVKGRFTISADTSKNTAYLQMNSLRAEDTAVYYCARSWSSGYDYWGQGTLVTVSS
VL: DIQMTQSPSSLSASVGDRVTITCRASQDVSWSVAWYQQKPGKAPKLLISGSTWLYSGVPSRFSGSGSGTDFTLTISSLQPEDFATYYCQQYSNSPITFGQGTKVEIKR
Take B2: the EC50 turned out to be 0.36 nM in the assay with NPA1 and 0.28 nM with NPA5. In addition, the binding result in the assay with NPA4 [2] is “no binding”.

B3: NP15 (antibody, V domains shown)
VH: EVQLVESGGGLVQPGGSLRLSCAASGFTISNWYIHWVRQAPGKGLEWVAGIGPYGGSTYYADSVKGRFTISADTSKNTAYLQMNSLRAEDTAVYYCARFHWDHLHGMDYWGQGTLVTVSS
VL: B2 VL with S30D, W31N, S32N, G50Y, W53G, S92W, S94Y
On to B3, for which the EC50 in the assay with NPA4 [1] was determined as 0.35 nM.

As a reminder, the EC50 is the concentration that produces a half-maximal response.
